From US20130288983A1 (Amgen, published 2013)
Changes are numbered by the printed parent chain. Names and notes keep the numbering of the source.

T1: Activin A (Homo sapiens (Human), UniProt P08476 311-426)
T1 sequence: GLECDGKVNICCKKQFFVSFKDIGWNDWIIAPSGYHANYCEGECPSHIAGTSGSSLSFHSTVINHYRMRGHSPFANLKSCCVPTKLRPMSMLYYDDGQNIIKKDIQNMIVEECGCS

B1: ActRIIB-IgG1 Fc R40T, linker GGGGS (Fc fusion)
chain: SGRGEAETRECIYYNANWELETTNQSGLERCEGEQDKRLHCYASWRNSSGTIELVKKGCWLDDFNCYDRQECVATEENPQVYFCCCEGNFCNERFTHLPEAGGPEVTYEPPPTAPTGGGGSAPELLGGPSVFLFPPKPKDILMISRTPEVTCVVVDVSHEDPEVKFNWYVGGVEVHNAKTKPREEQYNSTYRVVSVLTVLHQDWLNGKEYKCKVSNKALPAPIEKTISKAKGQPREPQVYTLPPSRDELTKNQVSLTCLVKGFYPSDIAVEWESNGQPENNYKTTPPVLDSDGSFFLYSKLTVDKSRWQQGNVFSCSVMHEALHNHYTQKSLSLSPGK
notes: Tested from conditioned media
B2: ActRIIB-IgG1 Fc E28N, linker GGGGS (Fc fusion)
chain: B1 chain with E10N, T22R
notes: Tested from conditioned media
B3: ActRIIB-IgG1 Fc R40P, linker GGGGS (Fc fusion)
chain: B1 chain with T22P
notes: Tested from conditioned media
B4: ActRIIB-IgG1 Fc E28S, linker GGGGS (Fc fusion)
chain: B1 chain with E10S, T22R
notes: Tested from conditioned media
B5: ActRIIB-IgG1 Fc E28T, linker GGGGS (Fc fusion)
chain: B1 chain with E10T, T22R
notes: Tested from conditioned media
B6: ActRIIB-IgG1 Fc E28R, linker GGGGS (Fc fusion)
chain: B1 chain with E10R, T22R
notes: Tested from conditioned media
B7: ActRIIB-IgG1 Fc R40L, linker GGGGS (Fc fusion)
chain: B1 chain with T22L
notes: Tested from conditioned media
B8: ActRIIB-IgG1 Fc R40Y, linker GGGGS (Fc fusion)
chain: B1 chain with T22Y
notes: Tested from conditioned media
B9: ActRIIB-IgG1 Fc E28D, linker GGGGS (Fc fusion)
chain: B1 chain with E10D, T22R
notes: Tested from conditioned media
B10: ActRIIB-IgG1 Fc R40I, linker GGGGS (Fc fusion)
chain: B1 chain with T22I
notes: Tested from conditioned media
B11: ActRIIB-IgG1 Fc E28G, linker GGGGS (Fc fusion)
chain: B1 chain with E10G, T22R
notes: Tested from conditioned media
B12: ActRIIB-IgG1 Fc R40V, linker GGGGS (Fc fusion)
chain: B1 chain with T22V
notes: Tested from conditioned media
B13: ActRIIB-IgG1 Fc E28P, linker GGGGS (Fc fusion)
chain: B1 chain with E10P, T22R
notes: Tested from conditioned media
B14: ActRIIB-IgG1 Fc E28C, linker GGGGS (Fc fusion)
chain: B1 chain with E10C, T22R
notes: Tested from conditioned media
B15: ActRIIB-IgG1 Fc R40F, linker GGGGS (Fc fusion)
chain: B1 chain with T22F
notes: Tested from conditioned media
B16: ActRIIB-IgG1 Fc R40C, linker GGGGS (Fc fusion)
chain: B1 chain with T22C
notes: Tested from conditioned media
B17: ActRIIB-IgG1 Fc R40S, linker GGGGS (Fc fusion)
chain: B1 chain with T22S
notes: Tested from conditioned media
B18: ActRIIB5-IgG1 Fc R40A, linker GGGGS (Fc fusion)
chain: SGRGEAETRECIYYNANWELEATNQSGLERCEGEQDKRLHCYASWRNSSGTIELVKKGCWLDDFNCYDRQECVATEENPQVYFCCCEGNFCNERFTHLPEAGGPEGPWASTTIPSGGPEATAAAGDQGSGALWLCLEGPAHEGGGGSAPELLGGPSVFLFPPKPKDILMISRTPEVTCVVVDVSHEDPEVKFNWYVGGVEVHNAKTKPREEQYNSTYRVVSVLTVLHQDWLNGKEYKCKVSNKALPAPIEKTISKAKGQPREPQVYTLPPSRDELTKNQVSLTCLVKGFYPSDIAVEWESNGQPENNYKTTPPVLDSDGSFFLYSKLTVDKSRWQQGNVFSCSVMHEALHNHYTQKSLSLSPGK
notes: Tested from conditioned media
B19: ActRIIB5-IgG1 Fc E28A, linker GGGGS (Fc fusion)
chain: B18 chain with E10A, A22R
notes: Tested from conditioned media
B20: ActRIIB5-IgG1 Fc E28W R40A, linker GGGGS (Fc fusion)
chain: B18 chain with E10W
notes: Tested from conditioned media
B21: ActRIIB-IgG1 Fc wild type, linker GGGGS (Fc fusion)
chain: B1 chain with T22R
notes: Tested from conditioned media
B22: ActRIIB-IgG1 Fc E28A, linker GGGGS (Fc fusion)
chain: B1 chain with E10A, T22R
notes: Tested from conditioned media
B23: ActRIIB-IgG1 Fc E28A, linker 2(GGGGS) (Fc fusion)
chain: SGRGEAETRACIYYNANWELERTNQSGLERCEGEQDKRLHCYASWRNSSGTIELVKKGCWLDDFNCYDRQECVATEENPQVYFCCCEGNFCNERFTHLPEAGGPEVTYEPPPTAPTGGGGSGGGGSAPELLGGPSVFLFPPKPKDILMISRTPEVTCVVVDVSHEDPEVKFNWYVGGVEVHNAKTKPREEQYNSTYRVVSVLTVLHQDWLNGKEYKCKVSNKALPAPIEKTISKAKGQPREPQVYTLPPSRDELTKNQVSLTCLVKGFYPSDIAVEWESNGQPENNYKTTPPVLDSDGSFFLYSKLTVDKSRWQQGNVFSCSVMHEALHNHYTQKSLSLSPGK
notes: Tested from conditioned media
B24: ActRIIB5-IgG1 Fc wild type, no linker (Fc fusion)
chain: SGRGEAETRECIYYNANWELERTNQSGLERCEGEQDKRLHCYASWRNSSGTIELVKKGCWLDDFNCYDRQECVATEENPQVYFCCCEGNFCNERFTHLPEAGGPEGPWASTTIPSGGPEATAAAGDQGSGALWLCLEGPAHEAPELLGGPSVFLFPPKPKDILMISRTPEVTCVVVDVSHEDPEVKFNWYVGGVEVHNAKTKPREEQYNSTYRVVSVLTVLHQDWLNGKEYKCKVSNKALPAPIEKTISKAKGQPREPQVYTLPPSRDELTKNQVSLTCLVKGFYPSDIAVEWESNGQPENNYKTTPPVLDSDGSFFLYSKLTVDKSRWQQGNVFSCSVMHEALHNHYTQKSLSLSPGK
notes: Tested from conditioned media
B25: ActRIIB5-IgG1 Fc E28A, no linker (Fc fusion)
chain: B24 chain with E10A
notes: Tested from conditioned media
B26: ActRIIB-IgG1 Fc R40M, linker GGGGS (Fc fusion)
chain: B1 chain with T22M
notes: Tested from conditioned media
B27: ActRIIB-IgG1 Fc E28W, linker GGGGS (Fc fusion)
chain: B1 chain with E10W, T22R
notes: Tested from conditioned media
B28: ActRIIB-IgG1 Fc R40Q, linker GGGGS (Fc fusion)
chain: B1 chain with T22Q
notes: Tested from conditioned media
B29: ActRIIB-IgG1 Fc R40H, linker GGGGS (Fc fusion)
chain: B1 chain with T22H
notes: Tested from conditioned media
B30: ActRIIB-IgG1 Fc E28Q, linker GGGGS (Fc fusion)
chain: B1 chain with E10Q, T22R
notes: Tested from conditioned media
B31: ActRIIB-IgG1 Fc E28V, linker GGGGS (Fc fusion)
chain: B1 chain with E10V, T22R
notes: Tested from conditioned media
B32: ActRIIB-IgG1 Fc R40K, linker GGGGS (Fc fusion)
chain: B1 chain with T22K
notes: Tested from conditioned media
B33: ActRIIB-IgG1 Fc R40N, linker GGGGS (Fc fusion)
chain: B1 chain with T22N
notes: Tested from conditioned media
B34: ActRIIB-IgG1 Fc E28Y, linker GGGGS (Fc fusion)
chain: B1 chain with E10Y, T22R
notes: Tested from conditioned media
B35: ActRIIB-IgG1 Fc R40G, linker GGGGS (Fc fusion)
chain: B1 chain with T22G
notes: Tested from conditioned media

target: Myostatin (human) (UniProt O14793); test: cell-based or functional assay
Sequence (O14793 267-375 limits assumed): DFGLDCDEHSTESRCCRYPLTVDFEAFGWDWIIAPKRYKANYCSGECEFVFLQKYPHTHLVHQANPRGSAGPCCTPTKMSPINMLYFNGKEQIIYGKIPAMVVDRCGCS

| IC50 (nM) for myostatin cell based assay, C2C12/pMARE-luc, 4 nM myostatin [nM] | Molecule |
| --- | --- |
| 0.9 | hActRIIB-hIgG2Fc (E28W) (SEQ ID NO: 91) (Fc fusion) |
| 1 | hActRIIB-hIgG2Fc (E28Y) (SEQ ID NO: 93) (Fc fusion) |
| 1.1 | hActRIIB-hIgG2Fc (SEQ ID NO: 89) (Fc fusion) |

target: T1, Activin A; test: Biacore SPR grade, COS transient conditioned media
Description: (§1) Qualitative BIAcore® Assay. E28 and R40 were substituted respectively with other natural amino acids in fusions with IgG1 Fc as described above. Each vActRIIB-IgG1Fc sample from conditioned media was captured on goat anti-human IgG1 Fc antibody (Jackson Immuno Research, cat#109-005-098, lot 63550) coated CMS surface. 20 nM of Activin A was injected over captured sample surfaces using BIACore2000 (BIACore Life Sciences, Piscataway, N.J.). The resulting sensorgrams were normalized to the captured RL (500 RU) of vActRIIB-IgG1Fc variants. The normalized binding response (RU) for some variants are shown in Table 2, and is further described below. Relative binding affinity for activin was also determined by Biacore measurements using conditioned media obtained from mammalian cell expression. Activin A (20 nM) was used to capture soluble receptor polypeptide in the conditioned media and measured SPR signals were normalized. Normalized SPR of +++++: >60, ++++:40-60, +++:20-40, ++:10-20, +: 5-10, −: <5.

| normalized SPR signal [ru] | Molecule |
| --- | --- |
| < 5 | B1 |
| < 5 | B2 |
| < 5 | B3 |
| < 5 | B4 |
| < 5 | B5 |
| < 5 | B6 |
| < 5 | B7 |
| < 5 | B8 |
| < 5 | B9 |
| < 5 | B10 |
| < 5 | B11 |
| < 5 | B12 |
| < 5 | B13 |
| < 5 | B14 |
| < 5 | B15 |
| < 5 | B16 |
| < 5 | B17 |

target: T1, Activin A; test: Biacore SPR grade, CHO stable conditioned media, 20 nM activin A
Description: as §1

| Normalized SPR [ru] | Molecule |
| --- | --- |
| 20 to 40 | B18 |
| 20 to 40 | B19 |
| 40 to 60 | B20 |
| 40 to 60 | B21 |
| 20 to 40 | B22 |
| 20 to 40 | B23 |
| 20 to 40 | B24 |
| 20 to 40 | B25 |

target: T1, Activin A; test: Biacore SPR grade, COS transient conditioned media, 20 nM activin A
Description: as §1

| normalized SPR signal [ru] | Molecule |
| --- | --- |
| 5 to 10 | B21 |
| 5 to 10 | B22 |
| 5 to 10 | B26 |
| > 60 | B27 |
| 5 to 10 | B28 |
| 10 to 20 | B29 |
| 5 to 10 | B30 |
| 5 to 10 | B31 |
| 10 to 20 | B32 |
| 10 to 20 | B33 |
| > 60 | B34 |
| 20 to 40 | B35 |
